Assays:
human insulin = human insulin (Homo sapiens, UniProt P01308); assay: Test of dissolution of human insulin at its isoelectric point; type: physicochemical; conditions: human insulin 100 IU/mL alone, pH 5.3
Source text: If an interaction exists between human insulin and the substituted anionic compound, it is then possible to dissolve the human insulin at its isoelectric point. […] The appearance of the solution is documented.

humans = conditions: injected subcutaneously, diabetic patients; cited from earlier work

Sequence of human insulin (P01308 25-54 limits assumed): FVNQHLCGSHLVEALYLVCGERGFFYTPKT
Sequence of human insulin (P01308 90-110 limits assumed): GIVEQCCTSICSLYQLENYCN

In the case of “Human insulin: Human insulin, tested at 100 IU/mL alone in the dissolution test; isoelectric point 5.3”, the Visual appearance (human insulin) is given as “Turbid” and the “time to hypoglycemiant effect” value (humans) is given as 60 min.

From patent US20160015814A1, “Fast-acting insulin formulation comprising a substituted anionic compound and a polyanionic compound” (ADOCIA, priority 2014, published 2016)
